These results are taken from patent publication US20250243261A1 (CZ BIOHUB SF, published 2025).

What is called Kd is the free concentration of one partner at which half of the binding sites on the other are occupied at equilibrium, for simple one-to-one binding.

Where two headings read alike, the source gives them in different places.

Assay [1] has as its target T1, Ebola GP ectodomain (Mayinga, Zaire, 1976) with the mucin-like domain deleted (Zaire ebolavirus (Mayinga, 1976), UniProt Q05320 33-650).
The target of assay [2] is T1, Ebola GP ectodomain (Mayinga, Zaire, …). This is another data set of the same source.
The target is the same in assay [3]. Description: BLI, IgG. Background: In BLI a coated tip is dipped into the sample, and binding shifts an interference pattern.
For assay [4], the target named is T2, full-length Ebola GP on pseudotyped lentivirus (Zaire ebolavirus, UniProt Q05320 33-676).
T2 sequence: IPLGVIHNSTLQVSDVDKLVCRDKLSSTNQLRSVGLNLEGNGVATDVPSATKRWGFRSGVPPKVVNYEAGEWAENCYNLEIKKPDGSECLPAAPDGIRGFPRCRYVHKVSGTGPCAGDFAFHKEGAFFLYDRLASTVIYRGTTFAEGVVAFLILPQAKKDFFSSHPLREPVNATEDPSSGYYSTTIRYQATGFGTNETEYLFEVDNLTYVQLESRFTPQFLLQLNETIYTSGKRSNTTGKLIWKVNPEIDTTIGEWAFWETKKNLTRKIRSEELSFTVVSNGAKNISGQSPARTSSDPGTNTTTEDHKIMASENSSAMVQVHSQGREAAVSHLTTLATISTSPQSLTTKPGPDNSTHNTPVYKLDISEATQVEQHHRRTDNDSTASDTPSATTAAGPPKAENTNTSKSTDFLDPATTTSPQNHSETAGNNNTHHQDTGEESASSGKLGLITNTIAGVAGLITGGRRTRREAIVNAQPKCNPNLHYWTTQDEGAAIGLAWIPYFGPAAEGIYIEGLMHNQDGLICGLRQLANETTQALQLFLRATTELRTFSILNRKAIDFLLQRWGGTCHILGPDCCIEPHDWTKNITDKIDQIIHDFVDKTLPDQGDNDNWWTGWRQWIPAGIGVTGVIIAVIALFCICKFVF
Description: cell-based or functional assay.

In assay [5] the target is T1, Ebola GP ectodomain (Mayinga, Zaire, …). In words: BLI, Fab.

B1: mAb114 UCA VH P60A-G61D / VL V43A IgG (antibody, V domains shown)
VH: EVQLVESGGGLVQPGGSLRLSCAASGFTFSSYDMHWVRQATGKGLEWVSAIGTAGDTYYADSVKGRFTISRENAKNSLYLQMNSLRAGDTAVYYCVRSDRGVAGLFDSWGQGTLVTVSS
VL: DIQMTQSPSSLSASVGDRVTITCRASQGISNYLAWYQQKPGKAPKLLIYAASTLQSGVPSRFSGSGSGTDFTLTISSLQPEDVATYYCQKYNSAPLTFGGGTKVEIK
For B1, the “fold improvement in Kd over wildtype” value in assay [1] was found to be 90 fold. The molecule also showed a Kd in assay [2] of 5 nM.

B2: mAb114 UCA VH P60A-G61D IgG (antibody, V domains shown)
VH: EVQLVESGGGLVQPGGSLRLSCAASGFTFSSYDMHWVRQATGKGLEWVSAIGTAGDTYYADSVKGRFTISRENAKNSLYLQMNSLRAGDTAVYYCVRSDRGVAGLFDSWGQGTLVTVSS
VL: DIQMTQSPSSLSASVGDRVTITCRASQGISNYLAWYQQKPGKVPKLLIYAASTLQSGVPSRFSGSGSGTDFTLTISSLQPEDVATYYCQKYNSAPLTFGGGTKVEIK
The molecule B2 registered a Kd in assay [2] of 120 nM.

B3: mAb114 UCA VH V96A / VL V43A IgG (antibody, V domains shown)
VH: EVQLVESGGGLVQPGGSLRLSCAASGFTFSSYDMHWVRQATGKGLEWVSAIGTAGDTYYPGSVKGRFTISRENAKNSLYLQMNSLRAGDTAVYYCARSDRGVAGLFDSWGQGTLVTVSS
VL: DIQMTQSPSSLSASVGDRVTITCRASQGISNYLAWYQQKPGKAPKLLIYAASTLQSGVPSRFSGSGSGTDFTLTISSLQPEDVATYYCQKYNSAPLTFGGGTKVEIK
In turn, B3 registered a Kd in assay [2] of 22 nM.

B4: mAb114 UCA VH G88E / VL V43A IgG (antibody, V domains shown)
VH: EVQLVESGGGLVQPGGSLRLSCAASGFTFSSYDMHWVRQATGKGLEWVSAIGTAGDTYYPGSVKGRFTISRENAKNSLYLQMNSLRAEDTAVYYCVRSDRGVAGLFDSWGQGTLVTVSS
VL: DIQMTQSPSSLSASVGDRVTITCRASQGISNYLAWYQQKPGKAPKLLIYAASTLQSGVPSRFSGSGSGTDFTLTISSLQPEDVATYYCQKYNSAPLTFGGGTKVEIK
B4 gave a Kd in assay [2] of 13 nM.

B5: mAb114 UCA VH P60A-G61D-G88E-V96A / VL V43A IgG (antibody, V domains shown)
VH: EVQLVESGGGLVQPGGSLRLSCAASGFTFSSYDMHWVRQATGKGLEWVSAIGTAGDTYYADSVKGRFTISRENAKNSLYLQMNSLRAEDTAVYYCARSDRGVAGLFDSWGQGTLVTVSS
VL: DIQMTQSPSSLSASVGDRVTITCRASQGISNYLAWYQQKPGKAPKLLIYAASTLQSGVPSRFSGSGSGTDFTLTISSLQPEDVATYYCQKYNSAPLTFGGGTKVEIK
Regarding B5, in assay [2], binding was characterised by a dissociation constant (Kd) of 13 nM.

B6: mAb114 UCA VH T41P-P60A-G61D-E72D-G88E-V96A IgG (antibody, V domains shown)
VH: EVQLVESGGGLVQPGGSLRLSCAASGFTFSSYDMHWVRQAPGKGLEWVSAIGTAGDTYYADSVKGRFTISRDNAKNSLYLQMNSLRAEDTAVYYCARSDRGVAGLFDSWGQGTLVTVSS
VL: DIQMTQSPSSLSASVGDRVTITCRASQGISNYLAWYQQKPGKVPKLLIYAASTLQSGVPSRFSGSGSGTDFTLTISSLQPEDVATYYCQKYNSAPLTFGGGTKVEIK
On to B6, for which binding in assay [2] was characterised by a dissociation constant (Kd) of 33 nM.

B7: mAb114 UCA VL V43A IgG (antibody, V domains shown)
VH: EVQLVESGGGLVQPGGSLRLSCAASGFTFSSYDMHWVRQATGKGLEWVSAIGTAGDTYYPGSVKGRFTISRENAKNSLYLQMNSLRAGDTAVYYCVRSDRGVAGLFDSWGQGTLVTVSS
VL: DIQMTQSPSSLSASVGDRVTITCRASQGISNYLAWYQQKPGKAPKLLIYAASTLQSGVPSRFSGSGSGTDFTLTISSLQPEDVATYYCQKYNSAPLTFGGGTKVEIK
In assay [2], B7 came in with a Kd of 60 nM.

B8: mAb114 UCA VH G61D IgG (antibody, V domains shown)
VH: EVQLVESGGGLVQPGGSLRLSCAASGFTFSSYDMHWVRQATGKGLEWVSAIGTAGDTYYPDSVKGRFTISRENAKNSLYLQMNSLRAGDTAVYYCVRSDRGVAGLFDSWGQGTLVTVSS
VL: DIQMTQSPSSLSASVGDRVTITCRASQGISNYLAWYQQKPGKVPKLLIYAASTLQSGVPSRFSGSGSGTDFTLTISSLQPEDVATYYCQKYNSAPLTFGGGTKVEIK
For the molecule B8, the Kd in assay [2] came out at 100 nM.

B9: mAb114 UCA WT IgG (antibody, V domains shown)
VH: EVQLVESGGGLVQPGGSLRLSCAASGFTFSSYDMHWVRQATGKGLEWVSAIGTAGDTYYPGSVKGRFTISRENAKNSLYLQMNSLRAGDTAVYYCVRSDRGVAGLFDSWGQGTLVTVSS
VL: DIQMTQSPSSLSASVGDRVTITCRASQGISNYLAWYQQKPGKVPKLLIYAASTLQSGVPSRFSGSGSGTDFTLTISSLQPEDVATYYCQKYNSAPLTFGGGTKVEIK
In assay [3], B9 showed a Kd of 400 nM.

B10: mAb114 UCA VH P60A-G61D / VL V43A Fab (Fab, V domains shown)
VH: EVQLVESGGGLVQPGGSLRLSCAASGFTFSSYDMHWVRQATGKGLEWVSAIGTAGDTYYADSVKGRFTISRENAKNSLYLQMNSLRAGDTAVYYCVRSDRGVAGLFDSWGQGTLVTVSS
VL: DIQMTQSPSSLSASVGDRVTITCRASQGISNYLAWYQQKPGKAPKLLIYAASTLQSGVPSRFSGSGSGTDFTLTISSLQPEDVATYYCQKYNSAPLTFGGGTKVEIK
B10 yielded a Kd in assay [2] of 480 nM.

B11: mAb114 UCA VL K90Q IgG (antibody, V domains shown)
VH: EVQLVESGGGLVQPGGSLRLSCAASGFTFSSYDMHWVRQATGKGLEWVSAIGTAGDTYYPGSVKGRFTISRENAKNSLYLQMNSLRAGDTAVYYCVRSDRGVAGLFDSWGQGTLVTVSS
VL: DIQMTQSPSSLSASVGDRVTITCRASQGISNYLAWYQQKPGKVPKLLIYAASTLQSGVPSRFSGSGSGTDFTLTISSLQPEDVATYYCQQYNSAPLTFGGGTKVEIK
Regarding B11, binding in assay [2] was put at a Kd of 620 nM.

B12: mAb114 UCA VH T41P-P60A-G61D-E72D-G88E-V96A / VL V43A IgG (antibody, V domains shown)
VH: EVQLVESGGGLVQPGGSLRLSCAASGFTFSSYDMHWVRQAPGKGLEWVSAIGTAGDTYYADSVKGRFTISRDNAKNSLYLQMNSLRAEDTAVYYCARSDRGVAGLFDSWGQGTLVTVSS
VL: DIQMTQSPSSLSASVGDRVTITCRASQGISNYLAWYQQKPGKAPKLLIYAASTLQSGVPSRFSGSGSGTDFTLTISSLQPEDVATYYCQKYNSAPLTFGGGTKVEIK
B12 yielded a Kd in assay [2] of 15 nM.

B13: mAb114 UCA VH V96A IgG (antibody, V domains shown)
VH: EVQLVESGGGLVQPGGSLRLSCAASGFTFSSYDMHWVRQATGKGLEWVSAIGTAGDTYYPGSVKGRFTISRENAKNSLYLQMNSLRAGDTAVYYCARSDRGVAGLFDSWGQGTLVTVSS
VL: DIQMTQSPSSLSASVGDRVTITCRASQGISNYLAWYQQKPGKVPKLLIYAASTLQSGVPSRFSGSGSGTDFTLTISSLQPEDVATYYCQKYNSAPLTFGGGTKVEIK
B13 returned a Kd in assay [2] of 110 nM.

B14: mAb114 UCA VH G88E IgG (antibody, V domains shown)
VH: EVQLVESGGGLVQPGGSLRLSCAASGFTFSSYDMHWVRQATGKGLEWVSAIGTAGDTYYPGSVKGRFTISRENAKNSLYLQMNSLRAEDTAVYYCVRSDRGVAGLFDSWGQGTLVTVSS
VL: DIQMTQSPSSLSASVGDRVTITCRASQGISNYLAWYQQKPGKVPKLLIYAASTLQSGVPSRFSGSGSGTDFTLTISSLQPEDVATYYCQKYNSAPLTFGGGTKVEIK
Molecule B14 gave a Kd in assay [2] of 150 nM.

B15: mAb114 UCA VH E72D IgG (antibody, V domains shown)
VH: EVQLVESGGGLVQPGGSLRLSCAASGFTFSSYDMHWVRQATGKGLEWVSAIGTAGDTYYPGSVKGRFTISRDNAKNSLYLQMNSLRAGDTAVYYCVRSDRGVAGLFDSWGQGTLVTVSS
VL: DIQMTQSPSSLSASVGDRVTITCRASQGISNYLAWYQQKPGKVPKLLIYAASTLQSGVPSRFSGSGSGTDFTLTISSLQPEDVATYYCQKYNSAPLTFGGGTKVEIK
For the molecule B15, in assay [2], the Kd stood at 200 nM.

B16: mAb114 VH D42G-A68T-S79Y / VL V43A IgG (antibody, V domains shown)
VH: EVQLVESGGGLIQPGGSLRLSCAASGFALRMYDMHWVRQTIGKRLEWVSAVGPSGDTYYADSVKGRFTVSRENAKNSLYLQMNSLTAGDTAIYYCVRSDRGVAGLFDSWGQGILVTVSS
VL: DIQMTQSPSSLSASVGDRITITCRASQAFDNYVAWYQQRPGKAPKLLISAASALHAGVPSRFSGSGSGTHFTLTISSLQPEDVATYYCQNYNSAPLTFGGGTKVEIK
On to B16, for which the “Ebola GP pseudotyped lentivirus IC50” value in assay [4] is 0.96 nM. Further, in assay [1], the Kd is less than 0.001 nM.

B17: mAb114 WT Fab (Fab, V domains shown)
VH: EVQLVESGGGLIQPGGSLRLSCAASGFALRMYDMHWVRQTIDKRLEWVSAVGPSGDTYYADSVKGRFAVSRENAKNSLSLQMNSLTAGDTAIYYCVRSDRGVAGLFDSWGQGILVTVSS
VL: DIQMTQSPSSLSASVGDRITITCRASQAFDNYVAWYQQRPGKVPKLLISAASALHAGVPSRFSGSGSGTHFTLTISSLQPEDVATYYCQNYNSAPLTFGGGTKVEIK
Consider B17, for which binding in assay [5] was characterised by a dissociation constant (Kd) of 0.17 nM.

B18: mAb114 WT IgG (antibody, V domains shown)
VH: EVQLVESGGGLIQPGGSLRLSCAASGFALRMYDMHWVRQTIDKRLEWVSAVGPSGDTYYADSVKGRFAVSRENAKNSLSLQMNSLTAGDTAIYYCVRSDRGVAGLFDSWGQGILVTVSS
VL: DIQMTQSPSSLSASVGDRITITCRASQAFDNYVAWYQQRPGKVPKLLISAASALHAGVPSRFSGSGSGTHFTLTISSLQPEDVATYYCQNYNSAPLTFGGGTKVEIK
For the molecule B18, in assay [1], the Kd was less than 0.001 nM.
